These results are taken from patent publication US20100150834A1 (BURNHAM INSTITUTE, published 2010).

Some results are limits rather than exact numbers.

The target of experiment [1] is T1, EphB4 (receptor of Table 1) (Mus musculus (Mouse), UniProt P54761 16-539).
T1 sequence: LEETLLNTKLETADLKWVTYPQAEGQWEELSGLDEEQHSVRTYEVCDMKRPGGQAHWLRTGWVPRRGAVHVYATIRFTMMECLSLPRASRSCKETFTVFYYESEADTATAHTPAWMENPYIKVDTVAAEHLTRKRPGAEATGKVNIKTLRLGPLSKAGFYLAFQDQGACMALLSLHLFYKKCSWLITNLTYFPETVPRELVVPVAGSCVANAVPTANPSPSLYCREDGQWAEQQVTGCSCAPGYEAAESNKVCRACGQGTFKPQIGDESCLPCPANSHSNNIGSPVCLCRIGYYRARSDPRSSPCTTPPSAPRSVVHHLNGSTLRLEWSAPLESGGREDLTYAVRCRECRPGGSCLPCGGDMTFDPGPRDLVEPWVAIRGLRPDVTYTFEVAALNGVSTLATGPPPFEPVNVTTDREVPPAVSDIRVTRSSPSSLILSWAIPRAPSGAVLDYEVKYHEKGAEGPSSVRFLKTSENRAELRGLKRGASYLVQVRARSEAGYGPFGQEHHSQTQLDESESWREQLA
Briefly: EphB receptor specificity panel (% binding).

The target in experiment [2] is EphB1 (receptor of Table 1). Briefly: EphB receptor specificity panel (% binding).
The target in experiment [3] is EphB2 (receptor of Table 1). Briefly: EphB receptor specificity panel (% binding).
Experiment [4] deals with EphB3 (receptor of Table 1). Briefly: EphB receptor specificity panel (% binding).
In experiment [5] the target is EphB6 (receptor of Table 1). The experiment is described as follows: EphB receptor specificity panel (% binding).
The target in experiment [6] is T1, EphB4 (receptor of Table 1). The experiment is described as follows: inhibition of ephrin-B2 AP binding to EphB4 (panning receptor).
Another experiment concerns the target T2, murine EphB4 ectodomain (murine, UniProt P54761 16-539).
T2 construct: extracellular domain; Coated on wells; also called immobilized EphB4 receptor ectodomain
T2 sequence (looked up): T1 sequence
Briefly: inhibition of murine ephrin-B2 AP binding to immobilised murine EphB4 ectodomain.

SGHQLLLNKMPN (Panned on EphB4) [SGHQLLLNKMPN peptide (SEQ ID NO:35)]: the “% Binding” value in experiment [1] was found to be 100%.

In the case of SHKFPGPPSWMS (Panned on EphB1) [SHKFPGPPSWMS peptide (SEQ ID NO:4)], the “% Binding” value in experiment [2] was found to be 88%; in experiment [3], 100%; in experiment [4] it was 10%; in experiment [5], 0%; in experiment [1] it was 9%.

In the case of GPVADAWLVYPR (Panned on EphB4) [GPVADAWLVYPR peptide (SEQ ID NO:32)], the “% Binding” value in experiment [2] is 10%; in experiment [3], 5%; in experiment [4] it was 4%; in experiment [5] it was 6%; in experiment [1], 100%.

One may read the IC50 as the concentration needed to halve the response being measured. In the case of DHNHNLYNPWRL (Panned on EphB4) [DHNHNLYNPWRL peptide (SEQ ID NO:21)], the “% Binding” value in experiment [2] worked out at 9%; in experiment [3], 8%; in experiment [4], 9%; in experiment [5] it was 7%; in experiment [1], 100%. The molecule further had an IC50 in experiment [6] of about 200 µM.

Molecule NYLFSPNGPIARAW [NYL-RAW peptide NYLFSPNGPIARAW (SEQ ID NO:40)] had an IC50 in the experiment with murine EphB4 ectodomain of about 0.04 µM.

Regarding IPWTQHMAMSPM (Panned on EphB4) [… peptide (SEQ ID NO:34)], the “% Binding” value in experiment [1] was 100%.

Regarding THWKFQPWALVT (Panned on EphB1) [THWKFQPWALVT peptide (SEQ ID NO:5)], the “% Binding” value in experiment [2] was determined as 86%; in experiment [3] it was 100%; in experiment [4], 5%; in experiment [5], 0%; in experiment [1], 0%.

For DHWRVSPYSLLY (Panned on EphB2) [DHWRVSPYSLLY peptide (SEQ ID NO:13)], the “% Binding” value stood at 100% in experiment [2]; 97% in experiment [3]; 1% in experiment [4]; 1% in experiment [5]; 0% in experiment [1].

In the case of WGIPRAAQVMWT (Panned on EphB4) [WGIPRAAQVMWT peptide (SEQ ID NO:33)], the “% Binding” value in experiment [2] was found to be 16%; in experiment [3] it was 17%; in experiment [4] it was 20%; in experiment [5], 14%; in experiment [1], 100%.

Regarding NHWPTQPYAIPI (Panned on EphB2) [NHWPTQPYAIPI peptide (SEQ ID NO:15)], the “% Binding” value worked out at 18% in experiment [2]; 100% in experiment [3]; 22% in experiment [4]; 0% in experiment [5]; 22% in experiment [1].

In the experiment with murine EphB4 ectodomain, YLFSPNGPIARAW [YL-RAW peptide YLFSPNGPIARAW (SEQ ID NO:41)] registered a concentration for half-maximal inhibition (IC50) of about 0.04 µM.

Turning to DALNDWLLFRPW (Panned on EphB4) [DALNDWLLFRPW peptide (SEQ ID NO:20)], the “% Binding” value worked out at 0% in experiment [2]; 0% in experiment [3]; 10% in experiment [4]; 16% in experiment [5]; 100% in experiment [1]. The molecule further displayed an IC50 in experiment [6] of over 100 µM.

Take NPVIGPIQRAWT (Panned on EphB4) [NPVIGPIQRAWT peptide (SEQ ID NO:27)]: the “% Binding” value in experiment [2] was 1%; in experiment [3] it was 0%; in experiment [4], 4%; in experiment [5] it was 0%; in experiment [1] it was 100%. Also, in experiment [6], the IC50 was over 500 µM.

For the molecule EFFTWRPTYYGI (Panned on EphB4) [EFFTWRPTYYGI peptide (SEQ ID NO:23)], the “% Binding” value in experiment [2] came out at 16%; in experiment [3] it was 12%; in experiment [4], 29%; in experiment [5] it was 17%; in experiment [1] it was 100%.

As to DHWYYTPWQPIE (Panned on EphB2) [DHWYYTPWQPIE peptide (SEQ ID NO:9)], the “% Binding” value in experiment [2] was 100%; in experiment [3], 81%; in experiment [4], 5%; in experiment [5], 2%; in experiment [1] it was 5%.

Turning to WHRYPDPRMLPT (Panned on EphB2) [WHRYPDPRMLPT peptide (SEQ ID NO:7)], the “% Binding” value amounted to 54% in experiment [2]; 100% in experiment [3]; 31% in experiment [4]; 15% in experiment [5]; 13% in experiment [1].

TTLSQLPKSTWL (Panned on EphB1) [TTLSQLPKSTWL peptide (SEQ ID NO:2)]: the “% Binding” value came out at 100% in experiment [2]; 0% in experiment [3]; 1% in experiment [4]; 0% in experiment [5]; 0% in experiment [1].

As for FSPQGPAARNFA (Panned on EphB4) [FSPQGPAARNFA peptide (SEQ ID NO:25)], the “% Binding” value in experiment [2] amounted to 13%; in experiment [3] it was 8%; in experiment [4], 11%; in experiment [5] it was 11%; in experiment [1] it was 100%. In addition, in experiment [6], the IC50 is over 600 µM.

Regarding GPVHRAWEPTSH (Panned on EphB4) [GPVHRAWEPTSH peptide (SEQ ID NO:29)], the “% Binding” value in experiment [2] is 4%; in experiment [3] it was 6%; in experiment [4] it was 16%; in experiment [5], 7%; in experiment [1], 100%.

GPVSKAWQETET (Panned on EphB4) [GPVSKAWQETET peptide (SEQ ID NO:31)]: the “% Binding” value in experiment [2] is 13%; in experiment [3], 13%; in experiment [4], 14%; in experiment [5] it was 16%; in experiment [1], 100%.

In the case of IHWPVAPYSYLD (Panned on EphB2) [IHWPVAPYSYLD peptide (SEQ ID NO:11)], the “% Binding” value is 97% in experiment [2]; 100% in experiment [3]; 4% in experiment [4]; 7% in experiment [5]; 4% in experiment [1].

Regarding GPVERAWRPDLI (Panned on EphB4) [GPVERAWRPDLI peptide (SEQ ID NO:30)], the “% Binding” value is 1% in experiment [2]; 2% in experiment [3]; 1% in experiment [4]; 3% in experiment [5]; 100% in experiment [1].

For the molecule DHWPLLPYALAH (Panned on EphB2) [… peptide (SEQ ID NO:16)], the “% Binding” value was found to be 4% in experiment [2]; 100% in experiment [3]; 7% in experiment [4]; 0% in experiment [5]; 0% in experiment [1].

On to THWCHLLNCAAL (Panned on EphB2) [THWCHLLNCAAL peptide (SEQ ID NO:6)], for which the “% Binding” value in experiment [2] was 100%; in experiment [3] it was 89%; in experiment [4] it was 85%; in experiment [5], 26%; in experiment [1], 20%.

For the molecule WPPHWPRSLDYA (Panned on EphB2) [WPPHWPRSLDYA peptide (SEQ ID NO:17)], the “% Binding” value in experiment [2] was found to be 0%; in experiment [3], 100%; in experiment [4], 0%; in experiment [5], 0%; in experiment [1], 0%.

As to LFSPNGPIARAW [L-RAW peptide LFSPNGPIARAW (SEQ ID NO:42)], in the experiment with murine EphB4 ectodomain, the 50% inhibitory concentration (IC50) was over 10 µM.

Regarding SHWPVLPFAHWQ (Panned on EphB2) [SHWPVLPFAHWQ peptide (SEQ ID NO:12)], the “% Binding” value in experiment [2] amounted to 98%; in experiment [3], 100%; in experiment [4] it was 9%; in experiment [5], 10%; in experiment [1], 6%.

As to LPHGPVAAAWDA (Panned on EphB4) [LPHGPVAAAWDA peptide (SEQ ID NO:26)], the “% Binding” value came out at 2% in experiment [2]; 15% in experiment [3]; 2% in experiment [4]; 4% in experiment [5]; 100% in experiment [1].

In the case of EWYMKFPPEHYF (Panned on EphB4) [EWYMKFPPEHYF peptide (SEQ ID NO:19)], the “% Binding” value in experiment [2] was 22%; in experiment [3], 23%; in experiment [4], 23%; in experiment [5], 30%; in experiment [1], 100%. Further, the IC50 in experiment [6] was over 600 µM.

Consider SHVGPIMRAWAP (Panned on EphB4) [SHVGPIMRAWAP peptide (SEQ ID NO:28)], for which the “% Binding” value in experiment [2] came to 22%; in experiment [3], 6%; in experiment [4], 2%; in experiment [5], 6%; in experiment [1] it was 100%.
